Laboratory results: patent publication US8034783B2, “Prodomain modulators of ADAM 10” (Biozyme, Inc., priority 2006, dated 2011)

Assays:
[1] = tested on: CD23 shedding in U937 cells; assay: CD23 release from U937 cells, soluble CD23 ELISA; assay type: cell-based; details: 150-600 nM, IL-4, 24 hr, FIG. 2B
Experimental: (§1) ADAM 10 prodomains were also tested in assays to determine if ADAM 10 protein functions as a CD23 sheddase. Cells (100,000 per well) were seeded in round-bottomed 96-well plates (Sarstedt, Newton, N.C.) in 0.2 ml of media supplemented with IL-4 with inhibitors (A10 23-215 150-600 nM, GM6001 10-50 μM, TAPI-2 10-50 μM, or TIMPs 250 nM) or vehicle controls (A10 23-215 buffer: 25 mM NaH2PO4 pH 7.0, 125 mM KCl, 75 mM NaCl 20% glycerol, PBS, or dimethyl sulfoxide). Cells were cultured for 24 hr. The conditioned medium was harvested by centrifugation (2000×g, 15 min). The conditioned medium was assayed by ELISA for soluble CD23 according to the manufacturers' instructions (BD Biosciences, Invitrogen).

[2] = target: T1, human ADAM 9 catalytic/disintegrin domains (Homo sapiens, UniProt Q13443); assay: Inhibition assay with ADAM 9; assay type: biochemical; details: read-out: inhibition constant, ADAM 9 (human)
T1 construct: human ADAM 9 catalytic/disintegrin domains activity; purchased R & D Systems (Minneapolis, Minn., USA)
T1 sequence (Q13443 206-697 limits assumed): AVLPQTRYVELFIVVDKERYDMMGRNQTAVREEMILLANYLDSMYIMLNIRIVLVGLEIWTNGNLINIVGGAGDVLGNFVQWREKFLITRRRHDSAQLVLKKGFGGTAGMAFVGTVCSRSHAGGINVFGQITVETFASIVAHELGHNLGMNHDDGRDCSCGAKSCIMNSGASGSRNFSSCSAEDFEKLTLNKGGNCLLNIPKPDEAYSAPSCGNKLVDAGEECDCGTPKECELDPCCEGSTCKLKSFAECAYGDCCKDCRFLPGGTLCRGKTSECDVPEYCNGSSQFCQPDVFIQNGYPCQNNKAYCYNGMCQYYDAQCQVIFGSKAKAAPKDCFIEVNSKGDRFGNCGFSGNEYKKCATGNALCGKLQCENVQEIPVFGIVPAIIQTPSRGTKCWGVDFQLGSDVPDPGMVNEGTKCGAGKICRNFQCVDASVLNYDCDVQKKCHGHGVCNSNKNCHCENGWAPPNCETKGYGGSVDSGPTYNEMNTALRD
Experimental: Inhibition assays with ADAM 9. The fluorescent substrate, Dabcyl-PchaGC(Me)HAK(Fam)-NH2 (SEQ ID NO 19) (10 μM), in a buffer containing 25 mM Tris, pH 8.0, 0.0006% Brij-35, was used to measure human ADAM 9 catalytic/disintegrin domains activity. The ADAM 9 was provided as a 0.1 μg/μl stock solution, from which 3 μl was added to start the reaction in the absence or presence of ADAM10 prodomain (78-5000 nM). Fluorescence intensities were measured every 10-20 minutes at excitation and emission wavelengths of 485 and 530 nm respectively.
(§2) Calculation of inhibition constants. The amount of activity was calculated by subtracting the ADAM 10 prodomain control from the ADAM 10 prodomain with enzyme. All inhibition assays were performed at room temperature and the data fit to the following equation using Sigma Plot software:
(§3) [formula] where If is fractional inhibition, I is the inhibitor concentration and Ki is the inhibition constant.

[3] = tested on: CD23 shedding in Ramos cells; assay: CD23 release from Ramos cells, soluble CD23 ELISA; assay type: cell-based; details: 150-600 nM, IL-4, 24 hr, FIG. 2A
Experimental: as §1

ADAM 10 (human) Cat/Dis = target: T2, ADAM 10 (human) Cat/Dis (Homo sapiens, UniProt O14672); assay: Inhibition assay with ADAM10 catalytic/disintegrin construct, fluorescent substrate; assay type: biochemical; details: room temperature, 10 μM fluorescent substrate; read-out: inhibition constant (Ki), ADAM 10 (human) Cat/Dis
T2 construct: containing the catalytic/disintegrin domains; purchased R & D Systems (Minneapolis, Minn., USA)
T2 sequence (O14672 214-672 limits assumed): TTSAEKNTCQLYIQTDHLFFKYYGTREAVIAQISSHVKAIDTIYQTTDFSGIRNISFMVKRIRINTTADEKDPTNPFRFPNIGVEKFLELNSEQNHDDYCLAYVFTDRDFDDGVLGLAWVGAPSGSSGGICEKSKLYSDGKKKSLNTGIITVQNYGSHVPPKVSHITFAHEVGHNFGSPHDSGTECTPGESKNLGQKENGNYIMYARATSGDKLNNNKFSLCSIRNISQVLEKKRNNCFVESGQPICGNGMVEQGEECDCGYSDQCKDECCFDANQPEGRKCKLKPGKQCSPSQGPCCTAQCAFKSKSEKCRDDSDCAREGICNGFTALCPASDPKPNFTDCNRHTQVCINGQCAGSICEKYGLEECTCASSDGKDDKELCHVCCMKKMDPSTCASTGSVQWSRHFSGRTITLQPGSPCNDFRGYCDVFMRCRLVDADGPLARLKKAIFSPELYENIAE
Experimental: Inhibition assays with TACE and ADAM 10. Activity of TACE catalytic/disintegrin, TACE catalytic, or ADAM10 catalytic/disintegrin constructs was monitored at 3 minute intervals using the fluorescent substrate, Dabcyl-LAQAHomoPheRSC(Fluorescein)-NH2 (SEQ ID NO 17) with excitation 485 nm and emission 530 nm. The substrate was diluted from a 10 mM stock in DMSO to 10 μM in assay buffer containing 20 mM Tris, pH 8.0, and 0.0006% Brij-35. Reactions were run in a 96-well black-coated plate with either ADAM10 prodomain (10 nM-1.0 μM) alone or with enzyme. Concentrations of enzyme ranged from 0.5-2.0 nM for TACE and 5-15 nM for ADAM10. For assays with TACE and ADAM8 prodomain, the range of concentrations varied from 1-4.7 μM.
as §2, §3
Wild type ADAM 10 prodomain (23-213) was tested to determine the mode of inhibition of ADAM 10 protein. ADAM 10 protein was diluted 1:100 in buffer 25 mM Tris pH 8, 0.0006% Brij-35 and then 10 μl was added to 88 μl of substrate (20-100 μM), Dabcyl-LAQAHomoPheRSC(Fluorescein)-NH2 with excitation 485 nm and emission 530 nm. Prodomain, 2 μl, in 25 mM Tris, pH 8, 100 mM NaCl, 10% glycerol, 0.1% mercaptoethanol, and 50 μM CaCl2 was added to substrate before addition of enzyme. The final concentration of prodomain ranged from 17-170 nM. The fluorescence vs time was plotted, and slopes were taken from straight line fits of initial velocities. The reciprocal of the velocities was plotted vs the reciprocal of substrate squared since the normal Lineweaver Burke plot gave curved lines. The initial velocities vs substrate concentrations were fit as a family of curves to several allosteric models.

B1: C173S ProADAM 10 23-213 (C-terminal His tag): mouse ADAM 10 prodomain 23-213 with cysteine 173 mutated to serine, C-terminal His tag (protein, UniProt O35598 23-213, looked up, variant C173S)
chain: NPLNKYIRHYEGLSYNVDSLHQKHQRAKRAVSHEDQFLLLDFHAHGRQFNLRMKRDTSLFSDEFKVETSNKVLDYDTSHIYTGHIYGEEGSFSHGSVIDGRFEGFIKTRGGTFYIEPAERYIKDRILPFHSVIYHEDDINYPHKYGPQGGSADHSVFERMRKYQMTGVEEGARAHPEKHAASSGPELLRKK
modifications: pro-form C-terminal His tag
notes: mouse ADAM 10 prodomain 23-213 with cysteine 173 mutated to serine, C-terminal His tag
inhibition of CD23 shedding, U937 cells [1]: about 30% | Ki [2]: > 1000 nM | inhibition of CD23 shedding, Ramos cells [3]: about 30% | Ki (ADAM 10 (human) Cat/Dis): 36 ± 9 nM
